Assay results as given in the supplement of paper PMC5998384.

Tests used:
[1] = system: HeLa Kyoto; test: solubility in G1/S (NP-40 vs SDS abundance) (log2 ratio); higher = more soluble; conditions: cell cycle stage: G1/S
[2] = system: HeLa Kyoto; test: melting temperature (median over replicates), in situ; higher = more thermally stable
[3] = system: HeLa Kyoto; test: solubility change mitosis vs G1/S (difference of NP-40 vs SDS log2 ratios) (log2 ratio difference); higher = more soluble in mitosis
[4] = system: HeLa Kyoto; test: thermal stability score vs G1/S (z-score of summed log2 fold changes over temperatures); higher = more thermally stable than in G1/S
[5] = cell cycle stage: early G1 (4.5 h after nocodazole release)
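Throughout, for melting temperature (median over replicates), in situ: HeLa Kyoto cells synchronized by double thymidine or nocodazole block, proteins quantified by TMT10plex mass spectrometry, three independent biological replicates.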
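Throughout, for solubility change mitosis vs G1/S (difference of NP-40 vs SDS log2 ratios): synchronized HeLa Kyoto cells (double thymidine block for G1/S, nocodazole release for mitosis), protein amounts in NP-40 versus SDS lysates quantified by mass spectrometry, three biological replicates.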
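Throughout, for solubility in G1/S (NP-40 vs SDS abundance): HeLa Kyoto cells arrested at G1/S by double thymidine block, proteins quantified by TMT10plex mass spectrometry in mild NP-40 versus SDS extracts, three biological replicates.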
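Throughout, for thermal stability score vs G1/S (z-score of summed log2 fold changes over temperatures): synchronized HeLa Kyoto cells, proteins quantified by TMT10plex mass spectrometry, three biological replicates, mitosis taken 0.5 h after nocodazole release, G1/S directly after double thymidine block.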

MDSGSSSSDSAPDCWDQVDMESPGSAPSGDGVSSAVAEAQREPLSSAFSRKLNVNAKPFVPNVHAAEFVPSFLRGPTQPPTLPAGSGSNDETCTGAGYPQGKRMGRGAPVEPSREEPLVSLEGSNSAVTMELSEPVVENGEVEMALEESWEHSKEVSEAEPGGGSSGDSGPPEESGQEMMEEKEEIRKSKSVIVPSGAPKKEHVNVVFIGHVDAGKSTIGGQIMFLTGMVDKRTLEKYEREAKEKNRETWYLSWALDTNQEERDKGKTVEVGRAYFETERKHFTILDAPGHKSFVPNMIGGASQADLAVLVISARKGEFETGFEKGGQTREHAMLAKTAGVKHLIVLINKMDDPTVNWSIERYEECKEKLVPFLKKVGFSPKKDIHFMPCSGLTGANIKEQSDFCPWYTGLPFIPYLDNLPNFNRSIDGPIRLPIVDKYKDMGTVVLGKLESGSIFKGQQLVMMPNKHNVEVLGILSDDTETDFVAPGENLKIRLKGIEEEEILPGFILCDPSNLCHSGRTFDVQIVIIEHKSIICPGYNAVLHIHTCIEEVEITALISLVDKKSGEKSKTRPRFVKQDQVCIARLRTAGTICLETFKDFPQMGRFTLRDEGKTIAIGKVLKLVPEKD [GSPT2]
solubility in G1/S (log2) [1]: 0.153 | melting temperature ([2]; cell cycle stage: mitosis): 53.5 °C | solubility change mitosis (log2) [3]: -0.124 | thermal stability score [4, 5]: -1.05 | thermal stability score ([4]; cell cycle stage: mitosis): -1.43

SPTBN2
solubility in G1/S (log2) [1]: -1.02 | melting temperature ([2]; cell cycle stage: G1/S): 51.8 °C | melting temperature ([2]; cell cycle stage: mitosis): 50.8 °C | solubility change mitosis (log2) [3]: 0.477 | thermal stability score [4, 5]: 0.264 | thermal stability score ([4]; cell cycle stage: mitosis): -0.194

MGLTVSALFSRIFGKKQMRILMVGLDAAGKTTILYKLKLGEIVTTIPTIGFNVETVEYKNICFTVWDVGGQDKIRPLWRHYFQNTQGLIFVVDSNDRERVQESADELQKMLQEDELRDAVLLVFANKQDMPNAMPVSELTDKLGLQHLRSRTWYVQATCATQGTGLYDGLDWLSHELSKR [ARF5]
solubility in G1/S (log2) [1]: -0.196 | melting temperature ([2]; cell cycle stage: G1/S): 55.4 °C | melting temperature ([2]; cell cycle stage: mitosis): 55.9 °C | solubility change mitosis (log2) [3]: -0.212 | thermal stability score [4, 5]: 1.02 | thermal stability score ([4]; cell cycle stage: mitosis): 1.14

MMPGPRPRKGPQARGQGVAAAKQMGLFMEFGPEDMLLGMDEAEDDEDLEAELLALTGEAQTTGKKPAPKGQAPLPMAHIEKLAADCMRDVEEEEEEEGLEEDAELLTELQEVLGVDEETEPLDGDEVADPGGSEEENGLEDTEPPVQTAVLTASAPAAQAGASQGLHALLEERIHNYREAAASAKEAGEAAKARRCERGLKTLESQLASVRRGRKINEDEIPPPVALGKRPLAPQEPANRSPETDPPAPPALESDNPSQPETSLPGISAQPVSDLDPDPRALLSSRQREYKVAALSAKRAGELDRARELMRIGKRFGAVLEALEKGQPVDLSAMPPAPEDLKPQQASQAPTAPSVIPPAVERVQPVMAPDVPATPVAPTESQTVLDALQQRLNKYREAGIQARSGGDERKARMHERIAKQYQDAIRAHRAGRKVNFAELPVPPGFPPIPGLESTMGVEEDAVAATLAAAEKLASAEDSAPADKDEDEPPGHLQGEPPAQAPVAKKPARPTVPSSQRLPEPRASSSKESPSPSVREQLALLEARKLQYQRAALQAKRSQDLEQAKAYLRVAKWLEAQIIQARSGRPVDLSKVPSPLTDEEGDFILIHHEDLRLSQKAEEVYAQLQKMLLEQQEKCLLFSKQFMHQGNVAETTRFEKLAQDRKKQLEILQLAQAQGLDPPTHHFELKTFQTVRIFSELNSTEMHLIIVRGMNLPAPPGVTPDDLDAFVRFEFHYPNSDQAQKSKTAVVKNTNSPEFDQLFKLNINRNHRGFKRVIQSKGIKFEIFHKGSFFRSDKLVGTAHLKLERLENECEIREIVEVLDGRKPTGGKLEVKVRLREPLSGQDVQMVTENWLVLEPRGL [CC2D1B]
solubility in G1/S (log2) [1]: 0.252 | melting temperature ([2]; cell cycle stage: G1/S): 50.4 °C | melting temperature ([2]; cell cycle stage: mitosis): 50.3 °C | solubility change mitosis (log2) [3]: -0.000596 | thermal stability score [4, 5]: 0.395 | thermal stability score ([4]; cell cycle stage: mitosis): 0.256

MWFFARDPVRDFPFELIPEPPEGGLPGPWALHRGRKKATGSPVSIFVYDVKPGAEEQTQVAKAAFKRFKTLRHPNILAYIDGLETEKCLHVVTEAVTPLGIYLKARVEAGGLKELEISWGLHQIVKALSFLVNDCSLIHNNVCMAAVFVDRAGEWKLGGLDYMYSAQGNGGGPPRKGIPELEQYDPPELADSSGRVVREKWSADMWRLGCLIWEVFNGPLPRAAALRNPGKIPKTLVPHYCELVGANPKVRPNPARFLQNCRAPGGFMSNRFVETNLFLEEIQIKEPAEKQKFFQELSKSLDAFPEDFCRHKVLPQLLTAFEFGNAGAVVLTPLFKVGKFLSAEEYQQKIIPVVVKMFSSTDRAMRIRLLQQMEQFIQYLDEPTVNTQIFPHVVHGFLDTNPAIREQTVKSMLLLAPKLNEANLNVELMKHFARLQAKDEQGPIRCNTTVCLGKIGSYLSASTRHRVLTSAFSRATRDPFAPSRVAGVLGFAATHNLYSMNDCAQKILPVLCGLTVDPEKSVRDQAFKAIRSFLSKLESVSEDPTQLEEVEKDVHAASSPGMGGAAASWAGWAVTGVSSLTSKLIRSHPTTAPTETNIPQRPTPEGVPAPAPTPVPATPTTSGHWETQEEDKDTAEDSSTADRWDDEDWGSLEQEAESVLAQQDDWSTGGQVSRASQVSNSDHKSSKSPESDWSSWEAEGSWEQGWQEPSSQEPPPDGTRLASEYNWGGPESSDKGDPFATLSARPSTQPRPDSWGEDNWEGLETDSRQVKAELARKKREERRREMEAKRAERKVAKGPMKLGARKLD [SCYL1]
solubility in G1/S (log2) [1]: -0.162 | melting temperature ([2]; cell cycle stage: G1/S): 50.9 °C | melting temperature ([2]; cell cycle stage: mitosis): 50.3 °C | solubility change mitosis (log2) [3]: -0.184 | thermal stability score [4, 5]: 0.0922 | thermal stability score ([4]; cell cycle stage: mitosis): 0.113

MVRKPVVSTISKGGYLQGNVNGRLPSLGNKEPPGQEKVQLKRKVTLLRGVSIIIGTIIGAGIFISPKGVLQNTGSVGMSLTIWTVCGVLSLFGALSYAELGTTIKKSGGHYTYILEVFGPLPAFVRVWVELLIIRPAATAVISLAFGRYILEPFFIQCEIPELAIKLITAVGITVVMVLNSMSVSWSARIQIFLTFCKLTAILIIIVPGVMQLIKGQTQNFKDAFSGRDSSITRLPLAFYYGMYAYAGWFYLNFVTEEVENPEKTIPLAICISMAIVTIGYVLTNVAYFTTINAEELLLSNAVAVTFSERLLGNFSLAVPIFVALSCFGSMNGGVFAVSRLFYVASREGHLPEILSMIHVRKHTPLPAVIVLHPLTMIMLFSGDLDSLLNFLSFARWLFIGLAVAGLIYLRYKCPDMHRPFKVPLFIPALFSFTCLFMVALSLYSDPFSTGIGFVITLTGVPAYYLFIIWDKKPRWFRIMSEKITRTLQIILEVVPEEDKL [SLC7A11]
solubility in G1/S (log2) [1]: -0.0116 | melting temperature ([2]; cell cycle stage: mitosis): 57.5 °C | solubility change mitosis (log2) [3]: -0.169 | thermal stability score [4, 5]: 0.372 | thermal stability score ([4]; cell cycle stage: mitosis): 0.123

MNYDSQQPPLPPLPYAGCRRASGFPALGRGGTVPVGVWGGAGQGREGRSWGEGPRGPGLGRRDLSSADPAVLGATMESRCYGCAVKFTLFKKEYGCKNCGRAFCSGCLSFSAAVPRTGNTQQKVCKQCHEVLTRGSSANASKWSPPQNYKKRVAALEAKQKPSTSQSQGLTRQDQMIAERLARLRQENKPKLVPSQAEIEARLAALKDERQGSIPSTQEMEARLAALQGRVLPSQTPQPAHHTPDTRTQAQQTQDLLTQLAAEVAIDESWKGGGPAASLQNDLNQGGPGSTNSKRQANWSLEEEKSRLLAEAALELREENTRQERILALAKRLAMLRGQDPERVTLQDYRLPDSDDDEDEETAIQRVLQQLTEEASLDEASGFNIPAEQASRPWTQPRGAEPEAQDVDPRPEAEEEELPWCCICNEDATLRCAGCDGDLFCARCFREGHDAFELKEHQTSAYSPPRAGQEH [ZFYVE19]
solubility in G1/S (log2) [1]: 0.428 | melting temperature ([2]; cell cycle stage: G1/S): 54.2 °C | melting temperature ([2]; cell cycle stage: mitosis): 52.9 °C | solubility change mitosis (log2) [3]: -0.237 | thermal stability score [4, 5]: -2.39 | thermal stability score ([4]; cell cycle stage: mitosis): -1.86

MAAAAECDVVMAATEPELLDDQEAKREAETFKEQGNAYYAKKDYNEAYNYYTKAIDMCPKNASYYGNRAATLMMLGRFREALGDAQQSVRLDDSFVRGHLREGKCHLSLGNAMAACRSFQRALELDHKNAQAQQEFKNANAVMEYEKIAETDFEKRDFRKVVFCMDRALEFAPACHRFKILKAECLAMLGRYPEAQSVASDILRMDSTNADALYVRGLCLYYEDCIEKAVQFFVQALRMAPDHEKACIACRNAKALKAKKEDGNKAFKEGNYKLAYELYTEALGIDPNNIKTNAKLYCNRGTVNSKLRKLDDAIEDCTNAVKLDDTYIKAYLRRAQCYMDTEQYEEAVRDYEKVYQTEKTKEHKQLLKNAQLELKKSKRKDYYKILGVDKNASEDEIKKAYRKRALMHHPDRHSGASAEVQKEEEKKFKEVGEAFTILSDPKKKTRYDSGQDLDEEGMNMGDFDPNNIFKAFFGGPGGFSFEASGPGNFFFQFG [DNAJC7]
solubility in G1/S (log2) [1]: 0.556 | melting temperature ([2]; cell cycle stage: G1/S): 48.8 °C | melting temperature ([2]; cell cycle stage: mitosis): 49.3 °C | solubility change mitosis (log2) [3]: -0.0134 | thermal stability score [4, 5]: 0.609 | thermal stability score ([4]; cell cycle stage: mitosis): 1.11

MTLESIMACCLSEEAKEARRINDEIERQLRRDKRDARRELKLLLLGTGESGKSTFIKQMRIIHGSGYSDEDKRGFTKLVYQNIFTAMQAMIRAMDTLKIPYKYEHNKAHAQLVREVDVEKVSAFENPYVDAIKSLWNDPGIQECYDRRREYQLSDSTKYYLNDLDRVADPAYLPTQQDVLRVRVPTTGIIEYPFDLQSVIFRMVDVGGQRSERRKWIHCFENVTSIMFLVALSEYDQVLVESDNENRMEESKALFRTIITYPWFQNSSVILFLNKKDLLEEKIMYSHLVDYFPEYDGPQRDAQAAREFILKMFVDLNPDSDKIIYSHFTCATDTENIRFVFAAVKDTILQLNLKEYNLV [GNAQ]
solubility in G1/S (log2) [1]: -0.282 | melting temperature ([2]; cell cycle stage: G1/S): 54.7 °C | melting temperature ([2]; cell cycle stage: mitosis): 54.3 °C | solubility change mitosis (log2) [3]: -0.0689 | thermal stability score [4, 5]: -0.77 | thermal stability score ([4]; cell cycle stage: mitosis): -0.236
